The target of this assay is T1, murine NKG2D on NK cells / splenocytes (mouse, UniProt O54709 1-232).
T1 construct: whole, on cells; also called NKG2D receptor
T1 sequence: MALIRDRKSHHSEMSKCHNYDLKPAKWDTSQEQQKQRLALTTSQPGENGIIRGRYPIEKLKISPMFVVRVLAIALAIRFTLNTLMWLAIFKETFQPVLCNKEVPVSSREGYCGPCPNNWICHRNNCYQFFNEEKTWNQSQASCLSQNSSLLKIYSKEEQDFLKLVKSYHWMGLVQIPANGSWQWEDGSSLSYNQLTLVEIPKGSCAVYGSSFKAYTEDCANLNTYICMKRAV
In words: flow cytometry, fluorescently labeled construct on bulk splenocytes at 37° C.

B1: OMCP-mutIL-2 (R38A, F42K, C125S IL2-OMCP construct) (other)
chain: HKLAFNFNLEINGSDTHSTVDVYLDDSQIITFDGKDIRPTIPFMIGDEIFLPFYKNVFSEFFSLFRRVPTSTPYEDLTYFYECDYTDNKSTFDQFYLYNGEEYTVKTQEATNKNMWLTTSEFRLKKWFDGEDCIMHLRSLVRKMEDSKRNTGGTGSSGSSDYKDDDDKHHHHHHHHGSSGSSAPTSSSTKKTQLQLEHLLLDLQMILNGINNYKNPKLTAMLTKKFYMPKKATELKHLQCLEEELKPLEEVLNLAQSKNFHLRPRDLISNINVIVLELKGSETTFMCEYADETATIVEFLNRWITFSQSIISTLT
notes: also called OMCP-mutant IL-2; OMCP-IL2 construct
Turning to B1, the binding result is “binds”.

The values above are taken from patent publication US20240092854A1 (WASHINGTON UNIVERSITY, published 2024).
